Patent publication US20230285520A1, “DEVELOPMENT OF A NEW ENGINEERED TOBACCO ETCH VIRUS (TEV) PROTEASE ACTIVABLE IN THE CYTOSOL OR SECRETORY PATHWAY” (Università Cattolica del Sacro Cuore, priority 2020, published 2023)

Assays:
[1] = system: TMD-TEVcs-tTA; experiment: TMD-TEVcs-tTA / tetO-EGFP reporter expression in HEK293T cells; assay type: cell-based; settings: control cells exposed to vehicle, absence of activator
Text: A system was used based upon the expression of a fluorophore after nuclear translocation of a transactivator sequestered on the plasmatic membrane by a TEV recognition site (TEVcs).
In particular, the inventors made to express in HEK293T cells a “tetracycline operator EGFP conjugated” (tetO-EGFP) and a synthetic protein consisting of a transactivator controlled by tetracycline (tTA), bound to a transmembrane domain (TMD) through a TEV recognition site (TEVcs) (TMD-TEVcs-tTA) (FIG. 7).

[2] = system: hippocampal organotypic sections; experiment: ERK phosphorylation in hippocampal organotypic sections treated with purified mature BDNF; assay type: cell-based, rat; settings: hippocampal organotypic sections treated for 30 minutes, Western blot
Protocol: HEK293T cells were transfected (PEI MAX—Polysciences, Inc.) with the plasmids codifying for unica-secTEV (pcDNA-unica-secTEV-SV5) and pro-TEVcs-BDNF (HA-pro-TEVcs-BDNF-Flag-SEP) and left for 24 h at 37° C., 5% CO2.
After 24 h the cells were treated for 1-3 h with rapamycin (1 μM) or DMSO as control. The cells were washed with cold PBS and lysed with lysis buffer containing rapamycin (1 μM) or DMSO. The lysate was immunoprecipitated with FLAG-M2-beads for 1 h and subsequently FLAG peptide (sigma F3290-4 mg) was added. After 1 h the beads were removed by Micro bio-spin Colums®—Bio-Rad. The eluted protein was kept at −20° C. Once quantified by commercially available ELISA kits its biological effect was tested as described in FIG. 6.
In order to test the biological activity of mature BDNF obtained with the chemogenetic strategy in neurons, BDNF was immunoprecipitated and purified by HEK293T cells co-transfected with unica-secTEV and treated with rapamycin. […] In fact, BDNF biochemical features, including the positive charges on its surface, prevent the spreading thereof and keep its action locally at level of synapses. This feature obstructs even the effectiveness of injections of purified BDNF as therapeutic strategy. […]

[3] = target: pro-TEVcs-BDNF (HA-pro-TEVcs-BDNF-Flag-SEP), P23560
[4] = mutations I138T, S153N and T180A; relative to wild-type TEV; cited from earlier work
[5] = system: pro-TEVcs-BDNF; experiment: In vitro protease test after immunoprecipitation of pro-TEVcs-BDNF and unica-TEV; assay type: biochemical; settings: in presence of rapamycin; SDS-PAGE
[6] = system: CFP-TEVcs-YFP; experiment: Cleavage of CFP-TEVcs-YFP substrate in the cytosol of transfected HEK293T cells (Western blot); assay type: cell-based
Text: Enzymatic Activity of Unica-TEV in Vital Cells • 13) Use CFP-TEVcs-YFP synthetic recombinant protein as substrate;
This artificial construct has two fluorophores conjugated by the cleavage sequence recognized by TEV (TEVcs). AntiGFP (Biolegend) antibody was used to verify cleavage of CFP-TEVcs-YFP by unica-TEV.
In order to do it, HEK293T cells were transfected (PEI MAX—Polysciences, Inc.) with the plasmids codifying constitutively active wild-type TEV (pcDNA-TEV), and engineered TEV with UniRapR (pcDNA-unica-TEV) and left to grow for 24-48 h at 37° C., 5% CO2.
For both of them, CFP-TEVcs-YFP was co-transfected.
After 24h the cells were treated for 1-3 h with rapamycin (1 μM) or DMSO as control. The cells were washed with cold PBS and lysed with lysis buffer containing rapamycin (1 μM) or DMSO. 10% of the volume of samples was prepared (addition of 2× Laemmli protein sample buffer+boiling for 5 min) for the electrophoretic analysis on gel of SDS-polyacrylamide.

[7] = system: pro-TEVcs-BDNF human recombinant; experiment: Cleavage/maturation of pro-TEVcs-BDNF in transfected HEK293T cells (Western blot); assay type: cell-based
[8] = system: TrkB; experiment: ERK phosphorylation in cells expressing pro-TEVcs-BDNF, unica-secTEV and TrkB-mGFP; assay type: cell-based; settings: chemogenetic activation of unica-secTEV; co-expressed TrkB-mGFP
Text: In order to evaluate if mature BDNF obtained after activation of unica-secTEV was able to bind and activate its TrkB endogenous target receptor, pro-TEVcs-BDNF was expressed, unica-secTEV with TrkB-mGFP.

[9] = system: CA1 pyramidal neurons; experiment: Dendritic spines of CA1 pyramidal neurons in transfected organotypic hippocampal sections; assay type: cell-based, rats; settings: unica-secTEV activated with rapamycin for 24 h
Text: In order to test the biological activity of mature BDNF obtained with the chemogenetic strategy in neurons, BDNF was immunoprecipitated and purified by HEK293T cells co-transfected with unica-secTEV and treated with rapamycin. […] In fact, BDNF biochemical features, including the positive charges on its surface, prevent the spreading thereof and keep its action locally at level of synapses. This feature obstructs even the effectiveness of injections of purified BDNF as therapeutic strategy. Since the extracellular application could involve both sides, even the exogenous application of purified BDNF is not useful in sectioning the roles of pre- and postsynaptic release. […] These gene approaches involve the deletion both of proBDNF and BDNF, the contribution of each form to the observed effect cannot be distinguished. The chemogenetic strategy developed by the inventors to control the protein cleavage is useful even to evaluate the specific autocrine action of BDNF inducible intracellular maturation in CA1 pyramidal neurons. In order to monitor BDNF specific effects in the postsynaptic neurons, organo-typical sections containing the hippocampus of rats with unica-secTEV, pro-TEVcs-BDNF and dsRed2 were transfected ballistically to display in a fluorescent way CA1 pyramidal neurons. After 48 h, unica-secTEV with rapamycin was activated for 24 h.

B1: unica-TEV without linker: unica-TEV construct with no linker (NL) between TEV and UniRapR (protein)
chain: GESLFKGPRDYNPISSTICHLTNESDGHTTSLYGIGFGPFIITNKHLFRRNNGTLLVQSLHGVFKVKNTTTLQQHLIDGRDMIIIRMPKDFPPFPQKLKFREPQREERICLVTTNFQTKSTCVVHYTGMLEDGKKFDSSRDRNKPFKFMLGKQEVIRGWEEGVAQMSVGQRAKLTISPDYAYGATGHGSGSGSGVKDLLQAWDLYYHVFRRISGPPGPGSGLWHEMWHEGLEEASRLYFGERNVKGMFEVLEPLHAMMERGPQTLKETSFNQAYGRDLMEAQEWCRKYMKSGSSGGSGSGIIPPHATLVFDVELLKLEMSSMVSDTSCTFPSSDGIFWKHWIQTKDGQCGSPLVSTRDGFIVGIHSASNFTNTNNYFTSVPKNFMELLTNQEAQQWVSGWRLNADSVLWGGHKVFMVKPEEPFQPVKEATQLMN
EGFP signal (background) [1]: substantially lower
EGFP signal (background) ([1]; listed as NL construct): almost wholly absent

B2: purified mature BDNF: mature BDNF immunoprecipitated and purified from HEK293T cells co-transfected with unica-secTEV and treated with rapamycin (protein, UniProt P23560 129-247, looked up)
Neurotrophic factor BDNF: HSDPARRGELSVCDSISEWVTAADKKTAVDMSGGTVTVLEKVPVSKGQLKQYFYETKCNPMGYTKEGCRGIDKRHWNSQCRTTQSYVRALTMDSKKRIGWRFIRIDTSCVCTLTIKRGR
modifications: Neurotrophic factor BDNF
notes: mature BDNF immunoprecipitated and purified from HEK293T cells co-transfected with unica-secTEV and treated with rapamycin
ERK phosphorylation [2]: significant increase in ERK phosphorylation signals
ERK phosphorylation ([2]; listed as mature BNDF): induces a phosphorylation of ERK protein

B3: unica-TEV (unimolecular chemical-activatable TEV) (protein)
chain: GESLFKGPRDYNPISSTICHLTNESDGHTTSLYGIGFGPFIITNKHLFRRNNGTLLVQSLHGVFKVKNTTTLQQHLIDGRDMIIIRMPKDFPPFPQKLKFREPQREERICLVTTNFQTKSGGSTCVVHYTGMLEDGKKFDSSRDRNKPFKFMLGKQEVIRGWEEGVAQMSVGQRAKLTISPDYAYGATGHGSGSGSGVKDLLQAWDLYYHVFRRISGPPGPGSGLWHEMWHEGLEEASRLYFGERNVKGMFEVLEPLHAMMERGPQTLKETSFNQAYGRDLMEAQEWCRKYMKSGSSGGSGSGIIPPHATLVFDVELLKLEGGSMSSMVSDTSCTFPSSDGTFWKHWIQTKDGQCGNPLVSTRDGFIVGIHSASNFTNTNNYFASVPKNFMELLTNQEAQQWVSGWRLNADSVLWGGHKVFMVKPEEPFQPVKEATQLMN
in vitro protease test after immunoprecipitation of both proteins, with rapamycin, SDS-PAGE [3]: SDS-PAGE migration of pro-peptide was noted

B4: unica-TEV: engineered single-chain TEV protease with uniRapR domain inserted between S120 and M121, rapamycin-activable; SEQ ID Nr. 5 (protein)
chain: B3 chain
modifications: Peptide sequence of unica-TEV engineered protease (1)..(440)
kcat/Km ratio unica-TEV/wtTEV [4]: 2.81
cleavage of pro-TEVcs-BDNF in vitro [5]: SDS-PAGE migration of pro-peptide was noted
cleavage of CFP-TEVcs-YFP (background activity) ([6]; in absence of rapamycin): absence of cleavage background
cleavage of CFP-TEVcs-YFP ([6]; in presence of rapamycin): identical cleavage profile
splitting of pro-TEVcs-BDNF in living cells by cytosolic protease ([7]; HEK293T, cytosolic localization of TEV protease): nor unica-TEV in presence of rapamycin, nor an active mutating form of TEV, split pro-TEVcs-BDNF

B5: unica-secTEV: unica-TEV with N-terminal secretion signal and mutations for activity in the secretory pathway; SEQ ID Nr. 6 (protein)
chain: QGAQGESLFKGPRDYNPISSTICHLTQESDGHTTSLYGIGFGPFIITNKHLFRRNNGTLLVQSLHGVFKVKNTTTLQQHLIDGRDMIIIRMPKDFPPFPQKLKFREPQREERICLVTTNFQTKSGGSTCVVHYTGMLEDGKKFDSSRDRNKPFKFMLGKQEVIRGWEEGVAQMSVGQRAKLTISPDYAYGATGHGSGSGSGVKDLLQAWDLYYHVFRRISGPPGPGSGLWHEMWHEGLEEASRLYFGERNVKGMFEVLEPLHAMMERGPQTLKETSFNQAYGRDLMEAQEWCRKYMKSGSSGGSGSGIIPPHATLVFDVELLKLEGGSMSSMVSDTSSTFPSSDGTFWKHWIQTKDGQCGNPLVSTRDGFIVGIHSASNFGNTNNYFASVPKNFMELLTNQEAQQWVSGWRLNADSVLWGGHKVFMSKPEEPFQPVKEATQLMNEGGLE
modifications: left off: small tags and cut ends
ERK phosphorylation [8]: clear increase in the kinase phosphorylation
morphology of dendritic spines [9]: significant changes in the morphology of dendritic spines
volume of heads of dendritic spines [9]: increase in the volume of heads of dendritic spines
density of dendritic spines ([9]; co-transfected pro-TEVcs-BDNF and dsRed2): significant increase in the density of dendritic spines
cleavage of pro-TEVcs-BDNF (background activity) ([7]; in absence of rapamycin, secretory pathway): absence of cleavage background
maturation (cleavage) of pro-TEVcs-BDNF in vital cells ([7]; in presence of rapamycin, secretory pathway, Western blot): 41-kDa band was noted designating BDNF maturation in the living cells and capability of unica-secTEV to make pro-TEVcs-BDNF to mature in vital cells
